Here are results for three substances from patent US20050096268A1.

For test [1], the target named is human IL-13 (human) (UniProt P35225). In words: Biacore SPR; IL-11R-Ig immobilized, 100 ng/ml human IL-13 injected.
The target is the same in test [2]. Briefly: Biacore SPR; human IgG1 immobilized, 100 ng/ml human IL-13 injected.
Test [3] has as its target murine IL-13 (murine) (UniProt P20109). In words: cell-based or functional assay.
Sequence of UniProt P20109 (P20109 21-131 limits assumed): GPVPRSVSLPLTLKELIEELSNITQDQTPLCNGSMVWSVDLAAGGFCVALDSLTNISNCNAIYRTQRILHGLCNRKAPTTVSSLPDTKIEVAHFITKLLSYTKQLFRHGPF

Sequence of UniProt P35225 (P35225 35-146 limits assumed): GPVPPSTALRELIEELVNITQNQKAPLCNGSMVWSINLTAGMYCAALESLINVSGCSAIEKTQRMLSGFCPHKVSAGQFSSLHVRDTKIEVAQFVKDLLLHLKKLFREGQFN

In test [1], IL-11R-Ig (Fc fusion) displayed an RU bound of 3.7 RU.

Take human IgG1 (IgG control) (antibody): the RU bound in test [2] stood at 5.4 RU.

For “soluble IL-13 receptor α2-Fc fusion protein (sIL-13Rα2-Fc) (from UniProt O88786 22-331)”, the in vitro ID50 in the B9 proliferation assay in test [3] turned out to be 10 ng/mL.
